B1: full-length USP8 (a.a. 7-1110), non-phosphorylated (enzyme)
chain: VPKELYLSSSLKDLNKKTEVKPEKISTKSYVHSALKIFKTAEECRLDRDEERAYVLYMKYVTVYNLIKKRPDFKQQQDYFHSILGPGNIKKAVEEAERLSESLKLRYEEAEVRKKLEEKDRQEEAQRLQQKRQETGREDGGTLAKGSLENVLDSKDKTQKSNGEKNEKCETKEKGAITAKELYTMMTDKNISLIIMDARRMQDYQDSCILHSLSVPEEAISPGVTASWIEAHLPDDSKDTWKKRGNVEYVVLLDWFSSAKDLQIGTTLRSLKDALFKWESKTVLRNEPLVLEGGYENWLLCYPQYTTNAKVTPPPRRQNEEVSISLDFTYPSLEESIPSKPAAQTPPASIEVDENIELISGQNERMGPLNISTPVEPVAASKSDVSPIIQPVPSIKNVPQIDRTKKPAVKLPEEHRIKSESTNHEQQSPQSGKVIPDRSTKPVVFSPTLMLTDEEKARIHAETALLMEKNKQEKELRERQQEEQKEKLRKEEQEQKAKKKQEAEENEITEKQQKAKEEMEKKESEQAKKEDKETSAKRGKEITGVKRQSKSEHETSDAKKSVEDRGKRCPTPEIQKKSTGDVPHTSVTGDSGSGKPFKIKGQPESGILRTGTFREDTDDTERNKAQREPLTRARSEEMGRIVPGLPSGWAKFLDPITGTFRYYHSPTNTVHMYPPEMAPSSAPPSTPPTHKAKPQIPAERDREPSKLKRSYSSPDITQAIQEEEKRKPTVTPTVNRENKPTCYPKAEISRLSASQIRNLNPVFGGSGPALTGLRNLGNTCYMNSILQCLCNAPHLADYFNRNCYQDDINRSNLLGHKGEVAEEFGIIMKALWTGQYRYISPKDFKITIGKINDQFAGYSQQDSQELLLFLMDGLHEDLNKADNRKRYKEENNDHLDDFKAAEHAWQKHKQLNESIIVALFQGQFKSTVQCLTCHKKSRTFEAFMYLSLPLASTSKCTLQDCLRLFSKEEKLTDNNRFYCSHCRARRDSLKKIEIWKLPPVLLVHLKRFSYDGRWKQKLQTSVDFPLENLDLSQYVIGPKNNLKKYNLFSVSNHYGGLDGGHYTAYCKNAARQRWFKFDDHEVSDISVSSVKSSAAYILFYTSLG
B2: USP8 ΔWW (WW domain-deleted mutant of FL USP8, a.a. 7-1110) (enzyme)
chain: VPKELYLSSSLKDLNKKTEVKPEKISTKSYVHSALKIFKTAEECRLDRDEERAYVLYMKYVTVYNLIKKRPDFKQQQDYFHSILGPGNIKKAVEEAERLSESLKLRYEEAEVRKKLEEKDRQEEAQRLQQKRQETGREDGGTLAKGSLENVLDSKDKTQKSNGEKNEKCETKEKGAITAKELYTMMTDKNISLIIMDARRMQDYQDSCILHSLSVPEEAISPGVTASWIEAHLPDDSKDTWKKRGNVEYVVLLDWFSSAKDLQIGTTLRSLKDALFKWESKTVLRNEPLVLEGGYENWLLCYPQYTTNAKVTPPPRRQNEEVSISLDFTYPSLEESIPSKPAAQTPPASIEVDENIELISGQNERMGPLNISTPVEPVAASKSDVSPIIQPVPSIKNVPQIDRTKKPAVKLPEEHRIKSESTNHEQQSPQSGKVIPDRSTKPVVFSPTLMLTDEEKARIHAETALLMEKNKQEKELRERQQEEQKEKLRKEEQEQKAKKKQEAEENEITEKQQKAKEEMEKKESEQAKKEDKETSAKRGKEITGVKRQSKSEHETSDAKKSVEDRGKRCPTPEIQKKSTGDVPHTSVTGDSGSGKPFKIKGQPESGILRTGTFREDTDDTERNKAQREPLTRARSEEMSSAPPSTPPTHKAKPQIPAERDREPSKLKRSYSSPDITQAIQEEEKRKPTVTPTVNRENKPTCYPKAEISRLSASQIRNLNPVFGGSGPALTGLRNLGNTCYMNSILQCLCNAPHLADYFNRNCYQDDINRSNLLGHKGEVAEEFGIIMKALWTGQYRYISPKDFKITIGKINDQFAGYSQQDSQELLLFLMDGLHEDLNKADNRKRYKEENNDHLDDFKAAEHAWQKHKQLNESIIVALFQGQFKSTVQCLTCHKKSRTFEAFMYLSLPLASTSKCTLQDCLRLFSKEEKLTDNNRFYCSHCRARRDSLKKIEIWKLPPVLLVHLKRFSYDGRWKQKLQTSVDFPLENLDLSQYVIGPKNNLKKYNLFSVSNHYGGLDGGHYTAYCKNAARQRWFKFDDHEVSDISVSSVKSSAAYILFYTSLG
B3: USP8 Δ686–757 (FL USP8, a.a. 7-1110, entire WW-CD linker deleted) (enzyme)
chain: VPKELYLSSSLKDLNKKTEVKPEKISTKSYVHSALKIFKTAEECRLDRDEERAYVLYMKYVTVYNLIKKRPDFKQQQDYFHSILGPGNIKKAVEEAERLSESLKLRYEEAEVRKKLEEKDRQEEAQRLQQKRQETGREDGGTLAKGSLENVLDSKDKTQKSNGEKNEKCETKEKGAITAKELYTMMTDKNISLIIMDARRMQDYQDSCILHSLSVPEEAISPGVTASWIEAHLPDDSKDTWKKRGNVEYVVLLDWFSSAKDLQIGTTLRSLKDALFKWESKTVLRNEPLVLEGGYENWLLCYPQYTTNAKVTPPPRRQNEEVSISLDFTYPSLEESIPSKPAAQTPPASIEVDENIELISGQNERMGPLNISTPVEPVAASKSDVSPIIQPVPSIKNVPQIDRTKKPAVKLPEEHRIKSESTNHEQQSPQSGKVIPDRSTKPVVFSPTLMLTDEEKARIHAETALLMEKNKQEKELRERQQEEQKEKLRKEEQEQKAKKKQEAEENEITEKQQKAKEEMEKKESEQAKKEDKETSAKRGKEITGVKRQSKSEHETSDAKKSVEDRGKRCPTPEIQKKSTGDVPHTSVTGDSGSGKPFKIKGQPESGILRTGTFREDTDDTERNKAQREPLTRARSEEMGRIVPGLPSGWAKFLDPITGTFRYYHSPTNTVHMYPPEMAPSASQIRNLNPVFGGSGPALTGLRNLGNTCYMNSILQCLCNAPHLADYFNRNCYQDDINRSNLLGHKGEVAEEFGIIMKALWTGQYRYISPKDFKITIGKINDQFAGYSQQDSQELLLFLMDGLHEDLNKADNRKRYKEENNDHLDDFKAAEHAWQKHKQLNESIIVALFQGQFKSTVQCLTCHKKSRTFEAFMYLSLPLASTSKCTLQDCLRLFSKEEKLTDNNRFYCSHCRARRDSLKKIEIWKLPPVLLVHLKRFSYDGRWKQKLQTSVDFPLENLDLSQYVIGPKNNLKKYNLFSVSNHYGGLDGGHYTAYCKNAARQRWFKFDDHEVSDISVSSVKSSAAYILFYTSLG
B4: 14-3-3γ (natural protein, UniProt P61981 1-247, looked up)
chain: MVDREQLVQKARLAEQAERYDDMAAAMKNVTELNEPLSNEERNLLSVAYKNVVGARRSSWRVISSIEQKTSADGNEKKIEMVRAYREKIEKELEAVCQDVLSLLDNYLIKNCSETQYESKVFYLKMKGDYYRYLAEVATGEKRATVVESSEKAYSEAHEISKEHMQPTHPIRLGLALNYSVFYYEIQNAPEQACHLAKTAFDDAIAELDTLNEDSYKDSTLIMQLLRDNLTLWTSDQQDDDGGEGNN

Legend:
[1] = target: mono-ubiquitin with an N-terminal fluorescein moiety (UniProt P0CG47 1-76, fluorescein on the N-terminus); assay: fluorescence polarisation
SEC-MALLS = target: the molecule itself; assay: SEC-MALLS

| Binder | Kd [1] [nM] | stoichiometry N (SEC-MALLS) |
| --- | --- | --- |
| B1 | 1480 |  |
| B2 | 290 |  |
| B3 | 367 |  |
| B4 |  | 2 |

Source: article PMC11467669 (The Journal of Biological Chemistry, 2024)
